Biological target: Delta-RBD (SARS-CoV-2, UniProt P0DTC2)
Experiment: BLI

B1: sACE2_(2).S14-IgG1 (Fc fusion)
chain: QSTIEEQAKYFLDKFNHEAEDLFYQSSLASWNYNTNITEENVQNMNNAGDKWSAFLKEQSTTAQMYPLQEIQNLTVKLQLQALQQNGSSVLSEDKSKRLNTILNTMSTIYSTGKVCNPDNPQECLLLEPGLNEIMANSLDYNERLWAWESWRSEVGKQLRPLYEEYVVLKNEMARANHYEDYGDYWRGDYEVNGVDGYDYSRGQLIEDVEHTFEEIKPLYEHLHAYVRAKLMNAYPSYISPIGCLPAHLLGDMWGRFWTNLYSLTVPFGQKPNIDVTDAMVDQAWDAQRIFKEAEKFFVSVGLPNMTQGFWEYSMLTDPGNVQKAVCHPTAWDLGKGDFRILMCTKVTMDDFLTAHHEMGHIQYDMAYAAQPFLLRNGANEGFHEAVGEIMSLSAATPKHLKSIGLLSPDFQEDNETEINFLLKQALTIVGTLPFTYMLEKWRWMVFKGEIPKDQWMKKWWEMKREIVGVVEPVPHDETYCDPASLFHVSNDYSFIRYYTRTLYQFQFQEALCQAAKHEGPLHKCDISNSTEAGQKLFNMLRLGKSEPWTLALENVVGAKNMNVRPLLNYFEPLFTWLKDQNKNSFVGWSTDWSPYADQSIKVRISLKSALGDKAYEWNDNEMYLFRSSVAYAMRQYFLKVKNQTILFGEEDVRVANLKPRISFNFFVTAPKNVSDIIPRTEVEKAIRMSRSRINDAFRLNDSSLEFLGIQPTLG
Question: B1 was tested. Which koff did it give?
Answer: The koff was 0.00087 s⁻¹.

Reference: article PMC11342882 (Molecular Therapy. Methods & Clinical Development, 2024)
